Ends that are not written are not given here.
Columns and labels:
[1] = molecular target: human Fc region manufactured by Jackson ImmunoResearch Laboratories, Inc. (human); experiment: phage ELISA, HRP-labelled Fc
[2] = molecular target: Fc region prepared from human monoclonal IgG by papain digestion (human); experiment: SPR, Fc immobilized
[3] = molecular target: human Fc region manufactured by Jackson ImmunoResearch Laboratories, Inc. (human); experiment: SPR, Fc immobilized, 25 C

| Binder | O.D. 415 [1] | further results |
| --- | --- | --- |
| YDPYTGTWRSSIWVLSG (peptide, T7 phage, not shown: large carriers, ends and bridges not checked) [recombinant phage displaying polypeptide SEQ ID NO: 4] | 0.165 |  |
| DAAWHLGELVWATYYDPETGTWEPDWSKMRPQ (peptide, T7 phage, not shown: large carriers, ends and bridges not checked) [recombinant phage displaying polypeptide SEQ ID NO: 34] | 0.281 |  |
| recombinant phage displaying polypeptide SEQ ID NO: 71 (protein, T7 phage, not shown: large carriers, ends and bridges not checked) DGVGPGSRGVYDPETGTWYDAAWHLGELVWATYYDPETGTWEPDWQRMLGQ | 0.219 |  |
| DAAWHLGELVWATYYDPETGTWVPDWERMKQH (peptide, T7 phage, not shown: large carriers, ends and bridges not checked) [recombinant phage displaying polypeptide SEQ ID NO: 33] | 0.305 |  |
| recombinant phage displaying polypeptide SEQ ID NO: 80 (protein, T7 phage, not shown: large carriers, ends and bridges not checked) LIPPGGISPWYDPETGTWYDAAWHLGELVWATYYDPETGTWEPDWQRMLGQ | 0.215 |  |
| YDPGTGTWRSYLRFGGG (peptide, T7 phage, not shown: large carriers, ends and bridges not checked) [recombinant phage displaying polypeptide SEQ ID NO: 3] | 0.278 |  |
| GSVVRWRGYDPRTGTWRSSIAYGGG (peptide, T7 phage, not shown: large carriers, ends and bridges not checked) [recombinant phage displaying polypeptide SEQ ID NO: 18] | 0.36 |  |
| polypeptide p17 (peptide) peptide: GPGISAFSPGRGVYDPETGTWYDAAWHLGELVWATYYDPETGTWEPDWQRMLGQ |  | Kd [2]: 1.6 nM |
| recombinant phage displaying polypeptide SEQ ID NO: 57 (protein, T7 phage, not shown: large carriers, ends and bridges not checked) GPGISAFSPGRGVYDPETGTWYDAAWHLGELVWATYYDPETGTWEPDWQRMLGQ | 0.229 |  |
| variant polypeptide p17_R50A (peptide) peptide: GPGISAFSPGRGVYDPETGTWYDAAWHLGELVWATYYDPETGTWEPDWQAMLGQ |  | Kd [2]: 7.8 nM |
| variant polypeptide p17_P46A (peptide) peptide: GPGISAFSPGRGVYDPETGTWYDAAWHLGELVWATYYDPETGTWEADWQRMLGQ |  | Kd [2]: 5.6 nM |
| variant polypeptide p17_M51A (peptide) peptide: GPGISAFSPGRGVYDPETGTWYDAAWHLGELVWATYYDPETGTWEPDWQRALGQ |  | Kd [2]: 180 nM; fold decrease of binding activity against p17 [2]: > 100 times |
| variant polypeptide p17_D47A (peptide) peptide: GPGISAFSPGRGVYDPETGTWYDAAWHLGELVWATYYDPETGTWEPAWQRMLGQ |  | Kd [2]: 45 nM |
| variant polypeptide p17_W48A (peptide) peptide: GPGISAFSPGRGVYDPETGTWYDAAWHLGELVWATYYDPETGTWEPDAQRMLGQ |  | Kd [2]: 200 nM; fold decrease of binding activity against p17 [2]: > 100 times |
| GVVRQWSGGGGSGGGGRSSIAYGGG [polypeptide 2A1Gly] |  | Kd [3]: 23000 nM |
| recombinant phage displaying polypeptide SEQ ID NO: 72 (protein, T7 phage, not shown: large carriers, ends and bridges not checked) FVSSLPNSAMYDPETGTWYDAAWHLGELVWATYYDPETGTWEPDWQRMLGQ | 0.229 |  |
| RSSIAYGGG [polypeptide RSS] |  | Kd [3]: 110000 nM |
| HWVNGRSGYDPRTGTWRSSIAYGGG (peptide, T7 phage, not shown: large carriers, ends and bridges not checked) [recombinant phage displaying polypeptide SEQ ID NO: 16] | 0.373 |  |
| recombinant phage displaying polypeptide SEQ ID NO: 64 (protein, T7 phage, not shown: large carriers, ends and bridges not checked) IPYGFPGRGEYDPETGTWYDAAWHLGELVWATYYDPETGTWEPDWQRMLGQ | 0.213 |  |
| recombinant phage displaying polypeptide SEQ ID NO: 70 (protein, T7 phage, not shown: large carriers, ends and bridges not checked) WMEFYPGRGVYDPETGTWYDAAWHLGELVWATYYDPETGTWEPDWQRMLGQ | 0.189 |  |
| DAAWHLGELVWATYYDPETGTWLPDWQTMAQK [polypeptide pep21] |  | Kd [2]: 100 nM |
| DAAWHLGELVWATYYDPETGTWLPDWQTMAQK (peptide, T7 phage, not shown: large carriers, ends and bridges not checked) [recombinant phage displaying polypeptide SEQ ID NO: 26] | 0.43 |  |
| DAAWHLGELVWATYYDPETGTWLPDWDYMSSK (peptide, T7 phage, not shown: large carriers, ends and bridges not checked) [recombinant phage displaying polypeptide SEQ ID NO: 37] | 0.235 |  |
| SWRRRGSSYDPRTGTWRSSIAYGGG (peptide, T7 phage, not shown: large carriers, ends and bridges not checked) [recombinant phage displaying polypeptide SEQ ID NO: 14] | 0.282 |  |
| recombinant phage displaying polypeptide SEQ ID NO: 63 (protein, T7 phage, not shown: large carriers, not fully specified; ends and bridges not checked) SNFVRSPSAWYDPETGTWYDAAWHLGELVWATYYDPETGTWEPDWQRMLGQ | 0.272 |  |

| Binder | O.D. 415 [1] | further results |
| --- | --- | --- |
| YDPRTGTWLLYASRLLG (peptide, T7 phage, not shown: large carriers, ends and bridges not checked) [recombinant phage displaying polypeptide SEQ ID NO: 7] | 0.214 |  |
| recombinant phage displaying polypeptide SEQ ID NO: 65 (protein, T7 phage, not shown: large carriers, ends and bridges not checked) GPYNIPDSAVYDPETGTWYDAAWHLGELVWATYYDPETGTWEPDWQRMLGQ | 0.291 |  |
| recombinant phage displaying polypeptide SEQ ID NO: 66 (protein, T7 phage, not shown: large carriers, ends and bridges not checked) WPLNAPSSAFYDPETGTWYDAAWHLGELVWATYYDPETGTWEPDWQRMLGQ | 0.182 |  |
| GAVYRRSFYDPRTGTWRSSIAYRGG (peptide, T7 phage, not shown: large carriers, ends and bridges not checked) [recombinant phage displaying polypeptide SEQ ID NO: 19] | 0.353 |  |
| DAAWHLGELVWATYYDPETGTWTPDWNAMSQR (peptide, T7 phage, not shown: large carriers, ends and bridges not checked) [recombinant phage displaying polypeptide SEQ ID NO: 39] | 0.273 |  |
| YDPRTGTWRRSSLSYSG (peptide, T7 phage, not shown: large carriers, ends and bridges not checked) [recombinant phage displaying polypeptide SEQ ID NO: 9] | 0.193 |  |
| EAWHLGELVWATYYDPETGTWRPDWSRMSGR (peptide, T7 phage, not shown: large carriers, ends and bridges not checked) [recombinant phage displaying polypeptide SEQ ID NO: 55] | 0.252 |  |
| YDPGTGTWRSWLSFNVG (peptide, T7 phage, not shown: large carriers, ends and bridges not checked) [recombinant phage displaying polypeptide SEQ ID NO: 5] | 0.155 |  |
| DAAWHLGELVWATYYDPETGTWKPDWRMMGVP (peptide, T7 phage, not shown: large carriers, ends and bridges not checked) [recombinant phage displaying polypeptide SEQ ID NO: 36] | 0.287 |  |
| recombinant phage displaying polypeptide SEQ ID NO: 68 (protein, T7 phage, not shown: large carriers, ends and bridges not checked) FLVGLHAGAVYDPETGTWYDAAWHLGELVWATYYDPETGTWEPDWQRMLGQ | 0.186 |  |
| AGSRRAHGYDPRTGTWRSSIAYGGG (peptide, T7 phage, not shown: large carriers, ends and bridges not checked) [recombinant phage displaying polypeptide SEQ ID NO: 12] | 0.267 |  |
| DAAWHLGELVWATYYDPETGTWQPDWDIMAGH (peptide, T7 phage, not shown: large carriers, ends and bridges not checked) [recombinant phage displaying polypeptide SEQ ID NO: 31] | 0.295 |  |
| DAAWHLGELVWATYYDPETGTWQPDWLYMTTR [polypeptide pep14] |  | Kd [2]: 120 nM |
| DAAWHLGELVWATYYDPETGTWLPDWDVMVRQ (peptide, T7 phage, not shown: large carriers, ends and bridges not checked) [recombinant phage displaying polypeptide SEQ ID NO: 32] | 0.352 |  |
| DAAWHLGELVWATYYDPETGTWMPDWDRMLRR (peptide, T7 phage, not shown: large carriers, ends and bridges not checked) [recombinant phage displaying polypeptide SEQ ID NO: 38] | 0.29 |  |
| DAAWHLGELVWATYYDPETGTWRPDWAVMATP (peptide, T7 phage, not shown: large carriers, ends and bridges not checked) [recombinant phage displaying polypeptide SEQ ID NO: 35] | 0.32 |  |
| TGRGRSARYDPRTGTWRSSIAYGGG (peptide, T7 phage, not shown: large carriers, ends and bridges not checked) [recombinant phage displaying polypeptide SEQ ID NO: 15] | 0.396 |  |
| recombinant phage displaying polypeptide SEQ ID NO: 67 (protein, T7 phage, not shown: large carriers, ends and bridges not checked) VPPRFSSSAQYDPETGTWYDAAWHLGELVWATYYDPETGTWEPDWQRMLGQ | 0.25 |  |
| recombinant phage displaying polypeptide SEQ ID NO: 79 (protein, T7 phage, not shown: large carriers, ends and bridges not checked; also: displayed on T7 phage coat protein g10) GSCKFSSSCHYDPETGTWYDAAWHLGELVWATYYDPETGTWEPDWQRMLGQ | 0.329 |  |
| recombinant phage displaying polypeptide SEQ ID NO: 69 (protein, T7 phage, not shown: large carriers, ends and bridges not checked) VVRVDHSSAVYDPETGTWYDAAWHLGELVWATYYDPETGTWEPDWQRMLGQ | 0.201 |  |
| YDPVTGTWTSSIASWMG (peptide, T7 phage, not shown: large carriers, ends and bridges not checked) [recombinant phage displaying polypeptide SEQ ID NO: 8] | 0.223 |  |
| DAAWHLGELVWATYYDPETGTWAPDWRLMQGQ [polypeptide pep11] |  | Kd [2]: 510 nM |
| DAAWHLGELVWATYYDPETGTWEPDWKLMQRP (peptide, T7 phage, not shown: large carriers, ends and bridges not checked) [recombinant phage displaying polypeptide SEQ ID NO: 30] | 0.287 |  |
| YDPWTGTWRSFIWGGGG (peptide, T7 phage, not shown: large carriers, ends and bridges not checked) [recombinant phage displaying polypeptide SEQ ID NO: 6] | 0.149 |  |

Source: patent US20150353608A1
